Data on two molecules can be found in article PMC4336547 (Cellular and molecular life sciences : CMLS, 2011).

The data set “FRET or BRET” deals with the molecule itself. As to the kind of experiment: FRET or BRET. (Bioluminescence resonance energy transfer reports proximity on the nanometre scale.)
Data set [1] addresses T1, murine claudin-3 wild type, untagged (Cld3wt) (mouse), Q9Z0G9.
T1 chain: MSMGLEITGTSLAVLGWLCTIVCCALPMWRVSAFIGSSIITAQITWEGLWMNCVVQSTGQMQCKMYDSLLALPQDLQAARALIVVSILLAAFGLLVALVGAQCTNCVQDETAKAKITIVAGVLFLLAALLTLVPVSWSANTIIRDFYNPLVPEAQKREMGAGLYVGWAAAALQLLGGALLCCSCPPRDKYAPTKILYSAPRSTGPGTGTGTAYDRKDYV
Description: contact enrichment. As to conditions: remark: other sources report otherwise.

B1: mouse claudin-5 wild type, CFP or YFP fusion (Cld5wt-CFP / Cld5wt-YFP) (natural protein, UniProt O54942 1-218, looked up)
chain: MGSAALEILGLVLCLVGWVGLILACGLPMWQVTAFLDHNIVTAQTTWKGLWMSCVVQSTGHMQCKVYESVLALSAEVQAARALTVGAVLLALVALFVTLTGAQCTTCVAPGPVKARVALTGGALYAVCGLLALVPLCWFANIVVREFYDPTVPVSQKYELGAALYIGWAASALLMCGGGLVCCGAWVCTGRPEFSFPVKYSAPRRPTANGDYDKKNYV
On to B1, for which, in “FRET or BRET”, the “mean FRET efficiency against the negative control Cld5/CRFR1” value was found to be 10 fold.

B2: murine claudin-3 wild type, untagged (Cld3wt), Q9Z0G9 1-219 (natural protein)
chain: MSMGLEITGTSLAVLGWLCTIVCCALPMWRVSAFIGSSIITAQITWEGLWMNCVVQSTGQMQCKMYDSLLALPQDLQAARALIVVSILLAAFGLLVALVGAQCTNCVQDETAKAKITIVAGVLFLLAALLTLVPVSWSANTIIRDFYNPLVPEAQKREMGAGLYVGWAAAALQLLGGALLCCSCPPRDKYAPTKILYSAPRSTGPGTGTGTAYDRKDYV
In turn, B2 returned a percentage of contacts with EF > 1.5 (PE) in data set [1] of 91%.
